Results from patent US20080027145A1, “Therapeutic Molecules and Methods for Generating and/or Selecting Same” (priority 2004, published 2008).

Assays:
mouse A1 ΔC20 (mouse) [1] = target: mouse A1 ΔC20 (mouse) (UniProt Q07440); experiment: Biacore solution competition against immobilised mouse wtBimBH3
[2] = target: mouse Mcl-1 ΔN151 ΔC23 (mouse) (UniProt P97287); experiment: as above
Bcl-2, BCl-xL and Bcl-w = experiment: solution competition on Biacore
mouse A1 ΔC20 (mouse) [3] = target: mouse A1 ΔC20 (mouse) (UniProt Q07440); experiment: solution competition on Biacore

mouse Mcl-1 ΔN151 ΔC23 (mouse), sequence (P97287 other isoform, or with tags, fused parts or gaps mutant): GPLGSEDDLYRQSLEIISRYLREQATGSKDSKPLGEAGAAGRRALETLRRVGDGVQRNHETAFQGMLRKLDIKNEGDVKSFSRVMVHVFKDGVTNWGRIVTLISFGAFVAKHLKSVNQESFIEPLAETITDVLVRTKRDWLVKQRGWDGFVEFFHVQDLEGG
mouse A1 ΔC20 (mouse), sequence (Q07440 other isoform, or with tags, fused parts or gaps mutant): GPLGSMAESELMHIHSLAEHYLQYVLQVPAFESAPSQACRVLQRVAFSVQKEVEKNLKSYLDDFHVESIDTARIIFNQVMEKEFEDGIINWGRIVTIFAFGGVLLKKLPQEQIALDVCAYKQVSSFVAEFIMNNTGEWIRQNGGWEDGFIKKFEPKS

Row | Binder | IC50 (mouse A1 ΔC20 (mouse) [1]) [nM] | IC50 [2] [nM] | IC50 (Bcl-2, BCl-xL and Bcl-w) [nM] | IC50 (mouse A1 ΔC20 (mouse) [3]) [nM]
1 | DIIRNIARHLAQVGDSMDRSIPPG [Bid (81-104) BH3 peptide, human] | 9.3 | – | – | –
2 | NLWAAQRYGRELRRMSDEFVDSFKKG [Bad (103-128) BH3 peptide, human] | 15000 | > 100000 | 5.3 to 30 | 15000

Other lines, results leading:

Row | IC50 (mouse A1 ΔC20 (mouse) [1]) [nM] | IC50 [2] [nM] | IC50 (Bcl-2, BCl-xL and Bcl-w) [nM] | IC50 (mouse A1 ΔC20 (mouse) [3]) [nM] | Binder
3 | 1800 | 1100 | – | – | HRAEVQIARKLQCIADQFHRLHTQ [m Bmf (128-151) BH3 peptide]
4 | 180 | 24 | – | – | PAELEVECATQLRRFGDKLNFRQKLL [Noxa (18-43) BH3 peptide, human]
